# Assay results taken from article PMC11130294 (Nature Communications, 2024).
# B1: NorA (wild-type, Staphylococcus aureus efflux pump) (natural protein)
# chain: MNKQIFVLYFNIFLIFLGIGLVIPVLPVYLKDLGLTGSDLGLLVAAFALSQMIISPFGGTLADKLGKKLIICIGLILFSVSEFMFAVGHNFSVLMLSRVIGGMSAGMVMPGVTGLIADISPSHQKAKNFGYMSAIINSGFILGPGIGGFMAEVSHRMPFYFAGALGILAFIMSIVLIHDPKKSTTSGFQKLEPQLLTKINWKVFITPVILTLVLSFGLSAFETLYSLYTADKVNYSPKDISIAITGGGIFGALFQIYFFDKFMKYFSELTFIAWSLLYSVVVLILLVFANGYWSIMLISFVVFIGFDMIRPAITNYFSNIAGERQGFAGGLNSTFTSMGNFIGPLIAGALFDVHIEAPIYMAIGVSLAGVVIVLIEKQHRAKLKEQNM
# B2: Fab36 (Fab, V domains shown)
# VH: EVQLVESGGGLVQPGGSLRLSCAASGFTFSSSSIHWVRQAPGKGLEWVASISSSSGSTSYADSVKGRFTISADTSKNTAYLQMNSLRAEDTAVYYCARYSRYYYYAWRVGGYWGGLDYWGQGTLVTVFN
# VL: DIQMTQSPSSLSASVGDRVTITCRASQSVSSAVAWYQQKPGKAPKLLIYSASSLYSGVPSRFSGSRSGTDFTLTISSLQPEDFATYYCQQSSSSLITFGQGTKVEIK
# notes: also called outward-open-specific Fab36
# Key:
# FabDA1 [1] = assay: MST; pH 5.0: Fab labelled with a 647-nm fluorophore at 40 nM, NorA in PMAL-C8 amphipol at varied concentrations; 50 mM acetate pH 5.0, 100 mM NaCl, 0.025% Tween-20; 15 min incubation; fit with Hill slope 1.0; three replicates
# FabDA1 [2] = assay: MST; pH 7.5: Fab labelled with a 647-nm fluorophore at 40 nM, NorA in PMAL-C8 amphipol at varied concentrations; 20 mM Tris pH 7.5, 100 mM NaCl, 0.025% Tween-20; 15 min incubation; fit with Hill slope 1.0; three replicates
# [3] = biological target: T1, Staphylococcus aureus efflux pump NorA, wild type (S. aureus, UniProt P0A0J7); assay: MST; NorA in amphipol at varied concentrations mixed with fluorophore-labelled Fab at 40 nM; 20 mM Tris pH 7.5, 100 mM NaCl, 0.025% Tween-20; 15 min incubation; three replicates; conditions: both partners purified
# T1 construct: NorA, major facilitator superfamily efflux pump of S. aureus; the construct is not described here; The C-terminal Myc tag is told only for the MRSA expression plasmid, not for this E. coli protein; also called wild-type NorA
Binder,Kd (FabDA1 [1]),Kd (FabDA1 [2]),binding result [3]
B1,2.9 µM,> 24.5 µM,–
B2,–,–,binds
